Among the data in PMC3602595 (2013) are Kd values, retold here.

The target of the experiment is T1, HasR TonB box dodecamer peptide (Serratia marcescens).
T1 chain: ALDSLTVLGAGG
The experiment can be described thus: ITC.

B1: TonBCTD CTD (protein)
chain: not shown
For orientation: Kd means the equilibrium constant for the complex coming apart. Low readings indicate tighter binding, high ones weaker binding. With B1, the equilibrium dissociation constant (Kd) was ~50 µM.
